# Bridges are numbered along the chain shown (N, C = ends). [ ]: non-standard residue; d: D form. 2Nal = N[C@@H](Cc1ccc2ccccc2c1)C(=O)O; NMeF = CN[C@@H](Cc1ccccc1)C(=O)O; pGlu = O=C1CC[C@@H](C(=O)O)N1; d(hCys) = N[C@H](CCS)C(=O)O; dNle = CCCC[C@@H](N)C(=O)O; hCys = N[C@@H](CCS)C(=O)O; Nle = CCCC[C@H](N)C(=O)O; dAbu = CC[C@@H](N)C(=O)O
# Molecular target: T1, human APJ receptor (hAPJ) (human, UniProt P35414 1-380)
# T1 sequence (looked up): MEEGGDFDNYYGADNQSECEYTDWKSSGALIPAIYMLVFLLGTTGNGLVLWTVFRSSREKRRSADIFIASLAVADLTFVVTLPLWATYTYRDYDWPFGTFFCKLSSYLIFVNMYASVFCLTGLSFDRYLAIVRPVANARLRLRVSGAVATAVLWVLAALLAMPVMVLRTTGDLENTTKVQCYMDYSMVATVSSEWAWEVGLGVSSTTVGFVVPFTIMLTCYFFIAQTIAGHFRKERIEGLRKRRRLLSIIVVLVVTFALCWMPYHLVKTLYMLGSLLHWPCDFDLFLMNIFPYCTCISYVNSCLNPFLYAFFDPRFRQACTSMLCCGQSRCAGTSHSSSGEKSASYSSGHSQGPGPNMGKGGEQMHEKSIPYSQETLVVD
# Assay: cell-based or functional assay
row,Binder,hAPJ Ca^2+ Flux EC50 [nM]
1,Ac-CRPRLSCKGP[Nle]P[NMeF]-OH (disulfide 1-7) [Ac-C*-R-P-R-L-S-C*-K-G-P-Nle-P-(N-Me)F-OH],64.5
2,[pGlu]R[dC]RLSCKGP[dNle][dAbu][dF]-OH (disulfide 3-7; SMILES CCCC[C@@H](NC(=O)[C@@H]1CCCN1C(=O)CNC(=O)[C@H](CCCCN)NC(=O)[C@@H]1CSSC[C@@H](NC(=O)[C@H](CCCNC(=N)N)NC(=O)[C@@H]2CCC(=O)N2)C(=O)N[C@@H](CCCNC(=N)N)C(=O)N[C@@H](CC(C)C)C(=O)N[C@@H](CO)C(=O)N1)C(=O)N[C@H](CC)C(=O)N[C@H](Cc1ccccc1)C(=O)O) [pE-R-c*-R-L-S-C*-K-G-P-(D-Nle)-(D-abu)-f-OH],86.5
3,[pGlu]RCRLSCKAP[dNle][dA][dF]-OH (disulfide 3-7; SMILES CCCC[C@@H](NC(=O)[C@@H]1CCCN1C(=O)[C@H](C)NC(=O)[C@H](CCCCN)NC(=O)[C@@H]1CSSC[C@H](NC(=O)[C@H](CCCNC(=N)N)NC(=O)[C@@H]2CCC(=O)N2)C(=O)N[C@@H](CCCNC(=N)N)C(=O)N[C@@H](CC(C)C)C(=O)N[C@@H](CO)C(=O)N1)C(=O)N[C@H](C)C(=O)N[C@H](Cc1ccccc1)C(=O)O) [pE-R-C*-R-L-S-C*-K-A-P-(D-Nle)-a-f-OH],85.8
4,ERPCLSCKGPL (pE at 1; disulfide C4-C7; D-Nle at 11 with C-terminal NH(Phenethyl) amide) [pE-R-P-C*-L-S-C*-K-G-P-(D-Nle)-NH(Phenethyl)],3
5,ERPCLSCKGPFAF (pE at 1; hC (L-homocysteine) at 4; disulfide hC4-C7; D-Phe (f) at 11; D-Ala (a) at 12; D-Phe (f) at 13; free C-terminal acid) [pE-R-P-hC*-L-S-C*-K-G-P-f-a-f-OH],4.2
6,Ac-CRPRLS[hCys]KGP[Nle]PF-OH (disulfide 1-7; SMILES CCCC[C@H](NC(=O)[C@@H]1CCCN1C(=O)CNC(=O)[C@H](CCCCN)NC(=O)[C@@H]1CCSSC[C@H](NC(C)=O)C(=O)N[C@@H](CCCNC(=N)N)C(=O)N2CCC[C@H]2C(=O)N[C@@H](CCCNC(=N)N)C(=O)N[C@@H](CC(C)C)C(=O)N[C@@H](CO)C(=O)N1)C(=O)N1CCC[C@H]1C(=O)N[C@@H](Cc1ccccc1)C(=O)O) [Ac-C*-R-P-R-L-S-hC*-K-G-P-Nle-P-F-OH],21.4
7,[pGlu]RCRLSCKGP[dNle]-NH2 (disulfide 3-7; SMILES CCCC[C@@H](NC(=O)[C@@H]1CCCN1C(=O)CNC(=O)[C@H](CCCCN)NC(=O)[C@@H]1CSSC[C@H](NC(=O)[C@H](CCCNC(=N)N)NC(=O)[C@@H]2CCC(=O)N2)C(=O)N[C@@H](CCCNC(=N)N)C(=O)N[C@@H](CC(C)C)C(=O)N[C@@H](CO)C(=O)N1)C(N)=O) [pE-R-C*-R-L-S-C*-K-G-P-(D-Nle)-NH2],227
8,[pGlu]RCRLSCFGP[dNle][dA][dF]-OH (disulfide 3-7; SMILES CCCC[C@@H](NC(=O)[C@@H]1CCCN1C(=O)CNC(=O)[C@H](Cc1ccccc1)NC(=O)[C@@H]1CSSC[C@H](NC(=O)[C@H](CCCNC(=N)N)NC(=O)[C@@H]2CCC(=O)N2)C(=O)N[C@@H](CCCNC(=N)N)C(=O)N[C@@H](CC(C)C)C(=O)N[C@@H](CO)C(=O)N1)C(=O)N[C@H](C)C(=O)N[C@H](Cc1ccccc1)C(=O)O) [pE-R-C*-R-L-S-C*-F-G-P-(D-Nle)-a-f-OH],3.3
9,ERPCLSCKGPLAF (pE at 1; disulfide C4-C7; D-Nle at 11; D-Ala (a) at 12; D-Phe (f) at 13; free C-terminal acid) [pE-R-P-C*-L-S-C*-K-G-P-(D-Nle)-a-f-OH],1.9
10,Ac-CRPRLSCKGP[Nle]P-NH2 (disulfide 1-7; SMILES CCCC[C@H](NC(=O)[C@@H]1CCCN1C(=O)CNC(=O)[C@H](CCCCN)NC(=O)[C@@H]1CSSC[C@H](NC(C)=O)C(=O)N[C@@H](CCCNC(=N)N)C(=O)N2CCC[C@H]2C(=O)N[C@@H](CCCNC(=N)N)C(=O)N[C@@H](CC(C)C)C(=O)N[C@@H](CO)C(=O)N1)C(=O)N1CCC[C@H]1C(N)=O) [Ac-C*-R-P-R-L-S-C*-K-G-P-Nle-P-NH2],74.6
11,ERPCLSCKGPLPF (pE at 1; disulfide C4-C7; Nle at 11; free C-terminal acid) [pE-R-P-C*-L-S-C*-K-G-P-Nle-P-F-OH],3.1
12,ERPCLSCKGPLAY (pE at 1; D-Cys (c) at 4; D-hC at 7; disulfide 4-7; D-Nle at 11; D-Ala (a) at 12; D-Tyr (y) at 13; free C-terminal acid) [pE-R-P-c*-L-S-(D-hC)*-K-G-P-(D-Nle)-a-y-OH],937
13,ERPCLSCKGPLF (pE at 1; disulfide C4-C7; D-Nle at 11; D-Phe (f) at 12; free C-terminal acid) [pE-R-P-C*-L-S-C*-K-G-P-(D-Nle)-f-OH],0.6
14,Ac-CRPRLSCKGP[Nle]P[2Nal]-OH (disulfide 1-7) [Ac-C*-R-P-R-L-S-C*-K-G-P-Nle-P-Nal-OH],1.6
15,ERPCLSCKGPLPF (pE at 1; disulfide C4-C7; Nle at 11; (N-Me)F at 13; free C-terminal acid) [pE-R-P-C*-L-S-C*-K-G-P-Nle-P-(N-Me)F-OH],4.2
16,[pGlu]RPCLSCFGP[dNle][dA][dF]-OH (disulfide 4-7; SMILES CCCC[C@@H](NC(=O)[C@@H]1CCCN1C(=O)CNC(=O)[C@H](Cc1ccccc1)NC(=O)[C@@H]1CSSC[C@H](NC(=O)[C@@H]2CCCN2C(=O)[C@H](CCCNC(=N)N)NC(=O)[C@@H]2CCC(=O)N2)C(=O)N[C@@H](CC(C)C)C(=O)N[C@@H](CO)C(=O)N1)C(=O)N[C@H](C)C(=O)N[C@H](Cc1ccccc1)C(=O)O) [pE-R-P-C*-L-S-C*-F-G-P-(D-Nle)-a-f-OH],2
17,H-RPCLSCK[dNle][dA][dF]-OH (disulfide 3-6; SMILES CCCC[C@@H](NC(=O)[C@H](CCCCN)NC(=O)[C@@H]1CSSC[C@H](NC(=O)[C@@H]2CCCN2C(=O)[C@@H](N)CCCNC(=N)N)C(=O)N[C@@H](CC(C)C)C(=O)N[C@@H](CO)C(=O)N1)C(=O)N[C@H](C)C(=O)N[C@H](Cc1ccccc1)C(=O)O) [H-R-P-C*-L-S-C*-K-(D-Nle)-a-f-OH],66.7
18,[pGlu]RCRLS[d(hCys)]KGP[dF][dA][dF]-OH (disulfide 3-7; SMILES CC(C)C[C@@H]1NC(=O)[C@H](CCCNC(=N)N)NC(=O)[C@@H](NC(=O)[C@H](CCCNC(=N)N)NC(=O)[C@@H]2CCC(=O)N2)CSSCC[C@H](C(=O)N[C@@H](CCCCN)C(=O)NCC(=O)N2CCC[C@H]2C(=O)N[C@H](Cc2ccccc2)C(=O)N[C@H](C)C(=O)N[C@H](Cc2ccccc2)C(=O)O)NC(=O)[C@H](CO)NC1=O) [pE-R-C*-R-L-S-(D-hC)*-K-G-P-f-a-f-OH],2290
19,ERPCLSCKGPL (pE at 1; disulfide C4-C7; Nle at 11 with C-terminal NH(Phenethyl) amide) [pE-R-P-C*-L-S-C*-K-G-P-Nle-NH(Phenethyl)],0.5
20,ERPCLSCKGPLP (pE at 1; disulfide C4-C7; Nle at 11; C-terminal NH(Phenethyl) amide on P12) [pE-R-P-C*-L-S-C*-K-G-P-Nle-P-NH(Phenethyl)],0.4
21,"ERPCLSCKGPL (pE at 1; disulfide C4-C7; Lys 8 N6 carries the BCN carbamate, joined by click reaction to azido-dPEG23-amide of docos-21-ene-1,11,11-tricarboxylic acid (fatty acid-PEG linker, compound A); D-Nle at 11 with C-terminal NH(Phenethyl) amide) [Apelin cyclic peptide conjugated to a fatty acid via a BCN-PEG linker: …]",2480
22,ERPCLSCKGPLVF (pE at 1; D-hC at 4; hC at 7; disulfide 4-7; D-Nle at 11; D-Nva (D-norvaline) at 12; D-Phe (f) at 13; free C-terminal acid) [pE-R-P-(D-hC)*-L-S-hC*-K-G-P-(D-Nle)-(D-Nva)-f-OH],175
23,[pGlu]RCRLSCK[dA]P[dNle][dA][dF]-OH (disulfide 3-7; SMILES CCCC[C@@H](NC(=O)[C@@H]1CCCN1C(=O)[C@@H](C)NC(=O)[C@H](CCCCN)NC(=O)[C@@H]1CSSC[C@H](NC(=O)[C@H](CCCNC(=N)N)NC(=O)[C@@H]2CCC(=O)N2)C(=O)N[C@@H](CCCNC(=N)N)C(=O)N[C@@H](CC(C)C)C(=O)N[C@@H](CO)C(=O)N1)C(=O)N[C@H](C)C(=O)N[C@H](Cc1ccccc1)C(=O)O) [pE-R-C*-R-L-S-C*-K-a-P-(D-Nle)-a-f-OH],72.2

# — US20160108091A1 (Novartis, published 2016)
